In the supplement of paper PMC10567573:
± gives the standard deviation.

Experiment: protein stability index of a GFP-peptide fusion (GPS, HEK-293T) (PSI 1-6); higher = more stable
Conditions: c terminus: a fixed tail appended
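Further: 24-mer peptide tiles fused after GFP, lentivirally expressed, FACS-sorted into six equal bins by GFP/DsRed ratio, decoded by Illumina sequencing, PSI is the read-weighted mean bin number.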

| Sequence | protein stability index (treatment: DMSO) | protein stability index (treatment: MLN4924 1 uM, 8 h) |
| --- | --- | --- |
| QGDLASLRAELQGHHAEKLPAGAG [TNFSF13B] | 4.72 ± 0.2 | 4.76 ± 0.18 |
| KLQDLIKDVLRYGEEQLKTHKKCK [FCHO1] | 2.42 ± 0.35 | 2.22 ± 0.29 |
| LSEEERSEKAMLRSRIEEQSQLIC [CCDC89] | 4.53 ± 0.3 | 4.62 ± 0.11 |
| SLPLQDELAFAEDLVLDEEGARAA [ESRRA] | 3.52 ± 0.68 | 4.31 ± 0.58 |
| QRQQLPVTFGNKQKVLGKALSLIR [BTBD1] | 2.81 ± 1 | 2.2 ± 0.41 |
| KREACHCEEVKMTVASEAKIQLSD [FAN1] | 4.76 ± 0.19 | 5 ± 0.18 |
| HDPLYGKLFSTYLRPPHTSRGTSQ [LPCAT4] | 3.27 ± 0.34 | 3.76 ± 0.21 |
| ERYDPNIDQWSMLGDMQTAREGAG [KLHL12] | 4.2 ± 0.25 | 4.33 ± 0.19 |
| QYWPSRGTETHGLVQVTLLDTVEL [PTPRD] | 2.13 ± 0.17 | 2.23 ± 0.49 |
| AALKQAIKDKEAPLHVAQTRLYLR [TEKT4] | 3.06 ± 0.15 | 3.07 ± 0.18 |
| VTSVSIELEKNFSNFPRQYFALRK [TRIM39] | 2.47 ± 0.25 | 2.5 ± 0.15 |
| SRQDKPLSPAGSSQEAADTPDTRH [YJU2B] | 5.56 ± 0.14 | 5.46 ± 0.13 |
| SSAAMQSSCSSTSGGGGGGGGGGG [CCDC6] | 5.2 ± 0.49 | 5.16 ± 0.19 |
| ENAAFKDVALVLTVLLEEETLEAS [TOR1AIP2] | 2.31 ± 0.33 | 2.4 ± 0.34 |
| LTYACENGHTDVADVLLQAGADLE [ANKRD17] | 4.3 ± 0.16 | 4.68 ± 0.35 |
| SEGLHLAGTAGHPPSGSQPLTSTQ [FBF1] | 5.07 ± 0.17 | 4.96 ± 0.23 |
| IGKWFDFKLFFNGRPGIVAWTLIN [DHCR7] | 2.56 ± 0.42 | 2.46 ± 0.18 |
| TRLYLRSHRPNMELCRDAAQFRLL [TEKT4] | 2.16 ± 0.44 | 2.27 ± 0.32 |
| YRHVMLPKDIAKLVPKTHLMSESE [CKS1B] | 3.75 ± 0.32 | 3.85 ± 0.23 |
| LEEVERAILEMKWKVRAEKEACQR [ZBED2] | 3.87 ± 0.18 | 3.76 ± 0.21 |
| GLTFLLPFLFFGHFWQLFNALTLF [TMEM120A] | 2.85 ± 0.11 | 2.63 ± 0.052 |
| LHAQLRDLTSSSSDELSWIIELLE [ELF3] | 2.83 ± 0.22 | 2.99 ± 0.39 |

| Sequence | protein stability index (treatment: DMSO) | protein stability index (treatment: MLN4924 1 uM, 8 h) |
| --- | --- | --- |
| ADSGNFKRCINLWKYALDMQQSNL [FEM1C] | 2.15 ± 0.37 | 2.21 ± 0.37 |
| QELLKRTIMQAVSQIRLNREHKET [TEKT4] | 2.63 ± 0.17 | 2.79 ± 0.36 |
| PALAPVPRNSCITCPQCHRSLILD [TRIM9] | 3.31 ± 0.3 | 3.37 ± 0.33 |
| NIQIIEYEKKQTLGQNDTGFSCDG [BTBD1] | 4.36 ± 0.4 | 4.034 ± 0.016 |
| LVSPSNNSKEDAFSGTDWMLEKMD [ATF4] | 4.66 ± 0.26 | 4.64 ± 0.23 |
| EAPALPAPAAPMVSKGAESSRSSE [BRD3] | 5.56 ± 0.32 | 5.73 ± 0.25 |
| EYAWCLVRSKYNDDIRKGIVLLEE [FIS1] | 2.13 ± 0.43 | 2.03 ± 0.26 |
| GKPPTAHLDRTSVSSLSEVEEVDM [ELOA2] | 5.51 ± 0.11 | 5.41 ± 0.29 |
| ESPRWLYSQGRLSEAEEALYLIAK [SLC22A15] | 2.75 ± 0.21 | 2.66 ± 0.45 |
| EERFRPLTFHGLILRSQLVTLLVR [CLCN6] | 2.79 ± 0.63 | 2.51 ± 0.36 |
| LEENPYDLDAWSILIREAQNQPID [CSTF3] | 3.74 ± 0.32 | 3.85 ± 0.31 |
| PVAQSTDGIRGKVGHARGLHAWQI [SPSB4] | 2.68 ± 0.37 | 2.84 ± 0.29 |
| GDSDSALDSVSPCPSSPKQIHLDV [DLC1] | 4.8 ± 0.37 | 4.66 ± 0.35 |
| QQSDLGQYVTFLRSFSDKQKISLL [ALG2] | 2.22 ± 0.24 | 2.29 ± 0.23 |
| QVPEEMSRCRNSYTEQELKPLTLE [DLC1] | 4.48 ± 0.26 | 4.46 ± 0.29 |
| IHFIAVAVCLLGVGTMVGADILAG [SLC35F2] | 2.8 ± 0.18 | 3.31 ± 0.45 |
| TCRNPACGPQWEMSEWSECTAKCG [ADAMTSL2] | 3.28 ± 0.29 | 3.93 ± 0.53 |
| EIIKVTEQLIEAISNGDFESYTKM [CAMK2A] | 2.27 ± 0.53 | 1.91 ± 0.61 |
| PSVFDGLGDLLMPTMAPAGQPAPV [SNAP91] | 3.54 ± 0.25 | 3.57 ± 0.2 |
| QPAGNRRGQARRLAPNFRWAIPNR [BEX3] | 3.89 ± 0.14 | 3.75 ± 0.32 |
| FRQFGYQDSPGPHEALSRLWELCH [ZNF396] | 2.28 ± 0.28 | 2.31 ± 0.24 |
| GVNTVFHCASPPPSSNNKELFYRV [NSDHL] | 2.53 ± 0.23 | 2.4 ± 0.1 |

| Sequence | protein stability index (treatment: DMSO) | protein stability index (treatment: MLN4924 1 uM, 8 h) |
| --- | --- | --- |
| GSRSNGMWAHSMTVQDYQDLIDRG [ATE1] | 3.92 ± 0.29 | 4.08 ± 0.29 |
| RLVGKTPIETLIRDMLLSGSSFNW [NR2F2] | 3.25 ± 0.84 | 1.87 ± 0.54 |
| LSKSRTDYQPTQAGRLMRPSVKYL [RNF180] | 3.19 ± 0.25 | 3.11 ± 0.49 |
| GLANGLQLLCPWAPLSGPQALMLP [VENTX] | 2.01 ± 0.31 | 2.1 ± 0.36 |
| VMYTIHMGCHGFRDPFECNMCGYH [IKZF1] | 2 ± 0.45 | 2.4 ± 1.3 |
| GENSDGCYEHFAELDIPQSVQQNG [CLPTM1] | 5 ± 0.33 | 5.01 ± 0.32 |
| EAASSSSTLVEVTLGEVPAAESPD [MAGEA3] | 5.41 ± 0.15 | 5.49 ± 0.12 |
| RSHFLWKEPATMSWLEENVHEVLQ [TCF25] | 2.43 ± 0.78 | 2.69 ± 0.39 |
| CGKSFTQSSGLIRHQRIHTGERPY [ZSCAN9] | 2.14 ± 0.034 | 2.25 ± 0.21 |
| PSLFHLNTLKRENSSPRVMQRKQS [DLC1] | 3.92 ± 0.16 | 4.2 ± 0.15 |
| EQLRREKIDLENTLEQEQEALVNR [CCDC6] | 5.2 ± 0.27 | 5.42 ± 0.1 |
| QIMKEGKATASEAVDCKWYIRAPP [NETO1] | 3.24 ± 0.086 | 3.24 ± 0.2 |
| DPDEEHLKKSSQVPRTEAPAPASS [PDLIM7] | 5.39 ± 0.17 | 5.5 ± 0.25 |
| VPVSFIFIFTFVKKKKIGFYFEVC [PCDHGA10] | – | 1.82 ± 0.39 |
| AQILPSRVQGGCYRFDSSSCSSED [DRICH1] | 4.05 ± 0.26 | 3.92 ± 0.35 |
| GVADFSATYLRCQLLLIKALQEKL [INTS4] | 2.77 ± 0.42 | 2.65 ± 0.48 |
| VELPIVDSLHPRPPYLPLAVPEDL [FUT8] | 4.24 ± 0.31 | 4.54 ± 0.22 |
| IVAVIDSAQLQELVCHVMMGNLVM [INTS3] | 3.25 ± 0.72 | 3.05 ± 0.55 |
| PDTAPPSERPLEDLRLRLDHLGWV [RTN2] | 3.39 ± 0.44 | 3.24 ± 0.38 |
| RRMCFVDPVRQCAECALVSLKEAE [ZFYVE21] | 2.98 ± 0.25 | 3.01 ± 0.64 |
| EDEGVDLSEGSSNEDEDLGPCEGP [SPANXN3] | 5.39 ± 0.44 | 5.41 ± 0.23 |
